From paper PMC5821389, “Fluorescent single-stranded DNA-binding protein from Plasmodium falciparum as a biosensor for single-stranded DNA”

Key:
[1] = molecular target: T1, DCC-PfSSB (wild-type PfSSB labeled with IDCC) (Plasmodium falciparum, UniProt Q8I415 77-284); experiment: fluorescence titration; high salt, 250 nM protein; two dT35 per tetramer; kon 109 uM-1s-1; High salt buffer (composition not in material) or low salt buffer (20 mM NaCl); pH and temperature not in material; conditions: protein: recombinant; tags: DCC (diethylaminocoumarin) at C93; chain copies: 4; single strand; two copies per tetramer at saturation
[2] = molecular target: T1, DCC-PfSSB (wild-type PfSSB labeled with …); experiment: stopped-flow kinetics (koff/kon); high salt (salt inferred); High salt buffer (composition not in material) or low salt buffer (20 mM NaCl); pH and temperature not in material; conditions: protein: recombinant; tags: DCC (diethylaminocoumarin) at C93; chain copies: 4; single strand
[3] = molecular target: T1, DCC-PfSSB (wild-type PfSSB labeled with …); experiment: fluorescence change; high salt; High salt buffer (composition not in material) or low salt buffer (20 mM NaCl); pH and temperature not in material; conditions: protein: recombinant; tags: DCC (diethylaminocoumarin) at C93; chain copies: 4; single strand
[4] = molecular target: PfSSB wild type, 5-IATR labeled (Plasmodium falciparum, UniProt Q8I415 77-284); experiment: as above; conditions: protein: recombinant; tags: tetramethylrhodamine (5-IATR) at C93; chain copies: 4; single strand
[5] = molecular target: PfSSB C93A W166C, 5-IATR labeled (Plasmodium falciparum, UniProt Q8I415 77-284, C93A;W166C); experiment: as above; conditions: protein: recombinant; tags: tetramethylrhodamine (5-IATR) at C166; chain copies: 4; single strand
[6] = molecular target: PfSSB C93A G103C, 6-IATR labeled (Plasmodium falciparum, UniProt Q8I415 77-284, C93A;G103C); experiment: as above; conditions: protein: recombinant; tags: tetramethylrhodamine (6-IATR) at C103; chain copies: 4; single strand
[7] = molecular target: PfSSB C93A G103C, IDCC labeled (Plasmodium falciparum, UniProt Q8I415 77-284, C93A;G103C); experiment: as above; conditions: protein: recombinant; tags: DCC at C103; chain copies: 4; single strand
[8] = molecular target: PfSSB Y156R, IDCC labeled (Plasmodium falciparum, UniProt Q8I415 77-284, Y156R); experiment: as above; conditions: protein: recombinant; tags: DCC at C93; chain copies: 4; single strand
[9] = molecular target: PfSSB C93A G102C, IDCC labeled (Plasmodium falciparum, UniProt Q8I415 77-284, C93A;G102C); experiment: as above; conditions: protein: recombinant; tags: DCC at C102; chain copies: 4; single strand
[10] = molecular target: T2, PfSSB wild type, unlabeled (Plasmodium falciparum, UniProt Q8I415 77-284); experiment: competition; high salt, equimolar labeled and unlabeled PfSSB; High salt buffer (composition not in material) or low salt buffer (20 mM NaCl); pH and temperature not in material; conditions: protein: recombinant; chain copies: 4; single strand
[11] = molecular target: T2, PfSSB wild type, unlabeled; experiment: competition; calculated from DCC-PfSSB Kd and 25-fold ratio; high salt; High salt buffer (composition not in material) or low salt buffer (20 mM NaCl); pH and temperature not in material; conditions: protein: recombinant; chain copies: 4; single strand
[12] = molecular target: T1, DCC-PfSSB (wild-type PfSSB labeled with …); experiment: stopped-flow kinetics (koff 0.014 s-1 / kon 199 uM-1s-1); low salt, 20 mM NaCl; koff by wtSSB displacement; High salt buffer (composition not in material) or low salt buffer (20 mM NaCl); pH and temperature not in material; conditions: protein: recombinant; tags: DCC (diethylaminocoumarin) at C93; chain copies: 4; single strand
[13] = molecular target: T1, DCC-PfSSB (wild-type PfSSB labeled with …); experiment: fluorescence titration; high salt, 125 pM DCC-PfSSB; single titration; High salt buffer (composition not in material) or low salt buffer (20 mM NaCl); pH and temperature not in material; conditions: protein: recombinant; tags: DCC (diethylaminocoumarin) at C93; chain copies: 4; single strand

| Binder | binding result [1] | Kd [2] | binding signal [3] | binding signal [4] | binding signal [5] | binding signal [6] | binding signal [7] | binding signal [8] | binding signal [9] | binding signal [10] | Kd [11] | Kd [12] | Kd [13] |
| --- | --- | --- | --- | --- | --- | --- | --- | --- | --- | --- | --- | --- | --- |
| TTTTTTTTTTTTTTTTTTTTTTTTTTTTTTTTTTT (ssDNA) [dT35] | binds |  |  |  |  |  |  |  |  |  |  |  |  |
| dT70 (ssDNA) DNA: TTTTTTTTTTTTTTTTTTTTTTTTTTTTTTTTTTTTTTTTTTTTTTTTTTTTTTTTTTTTTTTTTTTTTT |  | < 4.6 pM | 20.1 ± 0.1 fluorescence ratio +/- dT70 | 9.1 ± 0.2 fluorescence ratio +/- dT70 | 12.8 ± 0.5 fluorescence ratio +/- dT70 | 3.5 ± 0.4 fluorescence ratio +/- dT70 | 3.5 ± 0.08 fluorescence ratio +/- dT70 | 12.3 ± 0.07 fluorescence ratio +/- dT70 | 1.8 ± 0.09 fluorescence ratio +/- dT70 | > 25 fold tighter than DCC-PfSSB | < 0.2 pM | 0.07 nM | 1.2 ± 0.5 pM |
